Here are results for 21 molecules from US20240352438A1, “MEANS AND METHODS FOR DETOXIFYING OCHRATOXIN A” (DSM Austria GmbH, priority 2021, published 2024).

Residue numbers refer to the chain shown, from its start.

To fix the notation:
B1: 316 (protein)
chain: MTTRTRILTAFLSLLAANACAADAAPAAPETVVLRCARMFDGASGKLVDNPQLTIVGNKIVRIAQGDKAEVPAGAEVVDLGDATCLPGFIDAHVHLVVQDSDQYRPRAYKDWQRFPAEHALRGAYWARIELEAGFTSVRDVAERDWVALGLRNAIDAGKVPGPRMLVSNFPVGSTSGHCDMDSVPPNRLPLVGPLQGTCNGPEECRAAVRYQIKYGANVIKFCPSSGAITFSNPADAPQLSPDEMNAVIGESEAWGRYVAAHAQGDKAAKMAVAAGVRSIEHGTFIQDDTLRAMKAKNVCLVPTISGVCEAEAQIGCYPPVMAEKGRAGMASMRQTFREAVQIGVPIALGTDSALPANGSQAREFRYMVENGLTPAQALLAGTANAARCLGTFDRVGTLEAGKLADVVAVPGNPIADITVTERPLFVMKDGVVVRRDAVR
modifications: exemplary polypeptide
B2: 83 (protein)
chain: MTTRTRILTAFLSLLAANACAADAAPAAPHTVVLRAARMFDGASGKLVDHPQLTIVGNKIVRIAQGDKAEVPAGAEVVDLGDATLLPGFIDAHVHLSGQSSDNWYGDFFDNMMRFPAEQALYGAYYARITLEAGFTSVRDVGSTDWVALGLRNAIDAGKVPGPRMLVSNYAVGSTGGHADQDPIPPHKLPLAGPLQGVCNGPEECRAAVRYQIKYGANVIKFMPSGGVISLSDPVDAPELSQDEMNAVIGESHAWGRKVAAHAHGDKAAKMAVAAGVDSIEHGSFIEDDTLRAMKAKNVYLVPTISAIAHVEEKIGTFPPVIAEKGRAAAAHLRQTFRHAVQIGVPIALGTDAGVGAHGSNAREFRYMVENGLTPAQALLAGTANAARLLGTFDRVGTLEAGKLADVVAVPGNPIADITVTERPLFVMKDGVVVRRDAVR
modifications: exemplary polypeptide
B3: 103 (protein)
chain: B2 chain with I184V, I229L
modifications: exemplary polypeptide
B4: 88 (protein)
chain: B2 chain with I229L, V311L
modifications: exemplary polypeptide
B5: 96 (protein)
chain: B2 chain with I229L, V355I
modifications: exemplary polypeptide
B6: 84 (protein)
chain: B2 chain with I229L, H264N
modifications: exemplary polypeptide
B7: 85 (protein)
chain: B2 chain with I229L, H264L
modifications: exemplary polypeptide
B8: 87 (protein)
chain: B2 chain with I229L, I308A
modifications: exemplary polypeptide
B9: 106 (protein)
chain: B2 chain with H187N, I229L
modifications: exemplary polypeptide
B10: 91 (protein)
chain: B2 chain with I229L, F318L
modifications: exemplary polypeptide
B11: 122 (protein)
chain: B2 chain with I229L, Q242P
modifications: exemplary polypeptide
B12: 111 (protein)
chain: B2 chain with I229L, H332Q
modifications: exemplary polypeptide
B13: 108 (protein)
chain: B2 chain with I229L, H310N
modifications: exemplary polypeptide
B14: 107 (protein)
chain: B2 chain with I229L, H310Q
modifications: exemplary polypeptide
B15: 105 (protein)
chain: B2 chain with H187Q, I229L
modifications: exemplary polypeptide
B16: 95 (protein)
chain: B2 chain with I229L, V355L
modifications: exemplary polypeptide
B17: 113 (protein)
chain: B2 chain with I229L, E287Q
modifications: exemplary polypeptide
B18: 121 (protein)
chain: B2 chain with F109Y, I229L
modifications: exemplary polypeptide
B19: 89 (protein)
chain: B2 chain with I229L, V311I
modifications: exemplary polypeptide
B20: 119 (protein)
chain: B2 chain with Y122R, I229L
modifications: exemplary polypeptide
B21: 120 (protein)
chain: B2 chain with Y126W, I229L
modifications: exemplary polypeptide

The first series can be described thus: OTA detoxification activity assay (specific activity, fluorescence reduction ex/em 390/450 nm). The class given is biochemical. The note with it: pH 6.0; SEQ ID NO: 1 = 100%. The procedure, abridged: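 Recombinant enzyme preparation with 200 ng/mL OTA in 100 mM sodium phosphate, at pH 6.0 and pH 7.5, 37° C. Degradation followed as the fall in fluorescence at ex/em 390/450 nm. Specific activity taken from the initial linear slope; one unit degrades 1 μmol OTA per min at a starting OTA of […].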
For B1, the “Specific OTA detoxification activities in % compared to the enzyme of SEQ ID NO: 1, pH 6.0” value came out at 62%.

For B2, the “Specific OTA detoxification activities in % compared to the enzyme of SEQ ID NO: 1, pH 6.0” value stood at 63%.

As to B3, the “Specific OTA detoxification activities in % compared to the enzyme of SEQ ID NO: 1, pH 6.0” value was found to be 101%.

As for B4, the “Specific OTA detoxification activities in % compared to the enzyme of SEQ ID NO: 1, pH 6.0” value was 66%.

In the case of B5, the “Specific OTA detoxification activities in % compared to the enzyme of SEQ ID NO: 1, pH 6.0” value is given as 42%.

B6: the “Specific OTA detoxification activities in % compared to the enzyme of SEQ ID NO: 1, pH 6.0” value turned out to be 3%.

In the case of B7, the “Specific OTA detoxification activities in % compared to the enzyme of SEQ ID NO: 1, pH 6.0” value is 5%.

As for B8, the “Specific OTA detoxification activities in % compared to the enzyme of SEQ ID NO: 1, pH 6.0” value came to 65%.

Consider B9, for which the “Specific OTA detoxification activities in % compared to the enzyme of SEQ ID NO: 1, pH 6.0” value turned out to be 88%.

Take B10: the “Specific OTA detoxification activities in % compared to the enzyme of SEQ ID NO: 1, pH 6.0” value is reported as 49%.

Consider B11, for which the “Specific OTA detoxification activities in % compared to the enzyme of SEQ ID NO: 1, pH 6.0” value was found to be 59%.

Consider B12, for which the “Specific OTA detoxification activities in % compared to the enzyme of SEQ ID NO: 1, pH 6.0” value worked out at 8%.

For B13, the “Specific OTA detoxification activities in % compared to the enzyme of SEQ ID NO: 1, pH 6.0” value is listed as 61%.

In the case of B14, the “Specific OTA detoxification activities in % compared to the enzyme of SEQ ID NO: 1, pH 6.0” value came to 54%.

Regarding B15, the “Specific OTA detoxification activities in % compared to the enzyme of SEQ ID NO: 1, pH 6.0” value is on record as 81%.

As to B16, the “Specific OTA detoxification activities in % compared to the enzyme of SEQ ID NO: 1, pH 6.0” value turned out to be 108%.

As to B17, the “Specific OTA detoxification activities in % compared to the enzyme of SEQ ID NO: 1, pH 6.0” value was determined as 31%.

Take B18: the “Specific OTA detoxification activities in % compared to the enzyme of SEQ ID NO: 1, pH 6.0” value is 84%.

On to B19, for which the “Specific OTA detoxification activities in % compared to the enzyme of SEQ ID NO: 1, pH 6.0” value is listed as 43%.

On to B20, for which the “Specific OTA detoxification activities in % compared to the enzyme of SEQ ID NO: 1, pH 6.0” value is given as 107%.

As for B21, the “Specific OTA detoxification activities in % compared to the enzyme of SEQ ID NO: 1, pH 6.0” value was 85%.

The series is the same for the next values; noted with them: pH 7.5; SEQ ID NO: 1 = 100%.
As to B1, the “Specific OTA detoxification activities in % compared to the enzyme of SEQ ID NO: 1, pH 7.5” value stood at 61%.

On to B2, for which the “Specific OTA detoxification activities in % compared to the enzyme of SEQ ID NO: 1, pH 7.5” value is reported as 90%.

Take B3: the “Specific OTA detoxification activities in % compared to the enzyme of SEQ ID NO: 1, pH 7.5” value came to 124%.

With B4, the “Specific OTA detoxification activities in % compared to the enzyme of SEQ ID NO: 1, pH 7.5” value was found to be 91%.

In the case of B5, the “Specific OTA detoxification activities in % compared to the enzyme of SEQ ID NO: 1, pH 7.5” value came out at 33%.

As to B6, the “Specific OTA detoxification activities in % compared to the enzyme of SEQ ID NO: 1, pH 7.5” value is on record as 5%.

With B7, the “Specific OTA detoxification activities in % compared to the enzyme of SEQ ID NO: 1, pH 7.5” value turned out to be 3%.

As to B8, the “Specific OTA detoxification activities in % compared to the enzyme of SEQ ID NO: 1, pH 7.5” value worked out at 166%.

Regarding B9, the “Specific OTA detoxification activities in % compared to the enzyme of SEQ ID NO: 1, pH 7.5” value is given as 126%.

Take B10: the “Specific OTA detoxification activities in % compared to the enzyme of SEQ ID NO: 1, pH 7.5” value was found to be 73%.

Turning to B11, the “Specific OTA detoxification activities in % compared to the enzyme of SEQ ID NO: 1, pH 7.5” value worked out at 80%.

For the molecule B12, the “Specific OTA detoxification activities in % compared to the enzyme of SEQ ID NO: 1, pH 7.5” value is listed as 52%.

In the case of B13, the “Specific OTA detoxification activities in % compared to the enzyme of SEQ ID NO: 1, pH 7.5” value is given as 96%.

With B14, the “Specific OTA detoxification activities in % compared to the enzyme of SEQ ID NO: 1, pH 7.5” value was determined as 92%.

Take B15: the “Specific OTA detoxification activities in % compared to the enzyme of SEQ ID NO: 1, pH 7.5” value is 120%.

For B16, the “Specific OTA detoxification activities in % compared to the enzyme of SEQ ID NO: 1, pH 7.5” value was found to be 178%.

For B17, the “Specific OTA detoxification activities in % compared to the enzyme of SEQ ID NO: 1, pH 7.5” value was determined as 95%.

As for B18, the “Specific OTA detoxification activities in % compared to the enzyme of SEQ ID NO: 1, pH 7.5” value stood at 78%.

For B19, the “Specific OTA detoxification activities in % compared to the enzyme of SEQ ID NO: 1, pH 7.5” value came out at 107%.

Consider B20, for which the “Specific OTA detoxification activities in % compared to the enzyme of SEQ ID NO: 1, pH 7.5” value came out at 101%.

For the molecule B21, the “Specific OTA detoxification activities in % compared to the enzyme of SEQ ID NO: 1, pH 7.5” value is listed as 90%.

Another series is described as follows: Enzymatic activity comparison: activity remaining after 65° C. for 10 min at pH 6.0, relative to SEQ ID NO: 1. The class given is physicochemical.
Conditions: not given
The method, then: To compare the temperature behavior and thermostability of selected enzymes to one another, enzyme was incubated at 65° C. for 10 min at pH 6.0. The enzymatic activity remaining after incubation was compared to the remaining activity of the enzyme of SEQ ID NO: 1 after incubation, the latter being set to 100%, see Table 16.
In the case of B1, the “Enzymatic activity remaining after incubation, compared to SEQ ID NO: 1 (set to 100%)” value is on record as 25%.

Turning to B2, the “Enzymatic activity remaining after incubation, compared to SEQ ID NO: 1 (set to 100%)” value worked out at 19%.

Take B3: the “Enzymatic activity remaining after incubation, compared to SEQ ID NO: 1 (set to 100%)” value amounted to 36%.

Regarding B4, the “Enzymatic activity remaining after incubation, compared to SEQ ID NO: 1 (set to 100%)” value was 33%.

Consider B5, for which the “Enzymatic activity remaining after incubation, compared to SEQ ID NO: 1 (set to 100%)” value worked out at 39%.

Consider B6, for which the “Enzymatic activity remaining after incubation, compared to SEQ ID NO: 1 (set to 100%)” value amounted to 58%.

Turning to B7, the “Enzymatic activity remaining after incubation, compared to SEQ ID NO: 1 (set to 100%)” value is recorded as 95%.

With B8, the “Enzymatic activity remaining after incubation, compared to SEQ ID NO: 1 (set to 100%)” value amounted to 53%.

Turning to B9, the “Enzymatic activity remaining after incubation, compared to SEQ ID NO: 1 (set to 100%)” value stood at 27%.

On to B10, for which the “Enzymatic activity remaining after incubation, compared to SEQ ID NO: 1 (set to 100%)” value is on record as 16%.

With B11, the “Enzymatic activity remaining after incubation, compared to SEQ ID NO: 1 (set to 100%)” value turned out to be 40%.

With B12, the “Enzymatic activity remaining after incubation, compared to SEQ ID NO: 1 (set to 100%)” value is 35%.

Turning to B13, the “Enzymatic activity remaining after incubation, compared to SEQ ID NO: 1 (set to 100%)” value came to 27%.

For B14, the “Enzymatic activity remaining after incubation, compared to SEQ ID NO: 1 (set to 100%)” value is 21%.

Turning to B15, the “Enzymatic activity remaining after incubation, compared to SEQ ID NO: 1 (set to 100%)” value was 15%.

In the case of B16, the “Enzymatic activity remaining after incubation, compared to SEQ ID NO: 1 (set to 100%)” value was 38%.

Consider B17, for which the “Enzymatic activity remaining after incubation, compared to SEQ ID NO: 1 (set to 100%)” value is on record as 62%.

For the molecule B18, the “Enzymatic activity remaining after incubation, compared to SEQ ID NO: 1 (set to 100%)” value came to 40%.

As for B19, the “Enzymatic activity remaining after incubation, compared to SEQ ID NO: 1 (set to 100%)” value is on record as 71%.

For B20, the “Enzymatic activity remaining after incubation, compared to SEQ ID NO: 1 (set to 100%)” value came to 45%.

In the case of B21, the “Enzymatic activity remaining after incubation, compared to SEQ ID NO: 1 (set to 100%)” value is 23%.
